Measured values taken from the supplement of paper PMC10126150.
± gives the standard deviation of the averaged measurements.

Test system: ATP
Experiment: switch fluorescence ratio, 500 uM ATP over buffer (Cy3 cluster intensity, sum of 5 cycles each) (fold (ratio)); higher = stronger signal-on switching upon ATP binding; sequences stand for … in TCGTCGGCAGCGTCAGATGTGTATAAGAGACAGTTTTTTTTTTTTTTTTTTTTTTTTT…TC
Conditions: aptamer strand: ATP DNA aptamer (quencher-CACCTGGGGGAGTATTGCGGAGGAAGG + anchor), 100 nM annealed; ATP concentration: 500 uM
Outline: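 Clusters with intensities outside 100-1000 RFU were excluded. The remaining Cy3-labelled switching-strand clusters on a modified Illumina MiSeq flow-cell had been annealed to 100 nM quencher-labelled ATP aptamer and imaged in selection buffer, then after 15 min with 500 uM ATP at 22 °C, for five cycles separated by NaOH stripping and re-annealing. The fluorescence ratio, averaged per switch-domain sequence, is each cluster's summed target-cycle Cy3 intensity over its summed buffer-cycle Cy3 intensity.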
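Also: ATP exposure 15 min at 22 °C before imaging.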

| Sequence | switch fluorescence ratio |
| --- | --- |
| TGATTGGGCT | 1.03 ± 0.015 |
| TGATTGGGGA | 1.005 ± 0.0043 |
| TGATTGGGTT | 0.975 ± 0.022 |
| TGATTGGTTT | 1 ± 0.011 |
| TGATTGTGAA | 1 ± 0.024 |
| TGATTTAGAG | 0.998 ± 0.013 |
| TGATTTAGTT | 0.989 ± 0.02 |
| TGATTTGCGA | 0.987 ± 0.02 |
| TGATTTTACC | 1.06 ± 0.015 |
| TGATTTTAGG | 0.9832 ± 0.0061 |
| TGATTTTCGT | 1 ± 0.044 |
| TGCAAAAGGT | 1.02 ± 0.087 |
| TGCAAAGGGG | 1.01 ± 0.029 |
| TGCAAGAGTG | 1.03 ± 0.011 |
| TGCAATCGGT | 1.22 ± 0.065 |
| TGCAATTACT | 3.21 ± 0.24 |
| TGCAATTGGT | 1.01 ± 0.016 |
| TGCACAAGAT | 1.02 ± 0.011 |
| TGCACCATTT | 1.02 ± 0.014 |
| TGCACGGGGG | 1.03 ± 0.013 |
| TGCACTGTTT | 1.01 ± 0.038 |
| TGCACTTTTA | 1.01 ± 0.02 |
| TGCAGAAAAT | 1.01 ± 0.036 |
| TGCAGACGGT | 1.2 ± 0.14 |
| TGCAGCTGGT | 0.98 ± 0.021 |

| Sequence | switch fluorescence ratio |
| --- | --- |
| TGCAGGGTTT | 0.9906 ± 0.0082 |
| TGCAGGTTAC | 1.12 ± 0.015 |
| TGCAGTAGTT | 1.012 ± 0.005 |
| TGCAGTCATG | 0.995 ± 0.03 |
| TGCAGTGATC | 1.11 ± 0.056 |
| TGCAGTGTGC | 1.01 ± 0.015 |
| TGCAGTGTGG | 1.005 ± 0.0078 |
| TGCATAAATT | 0.9873 ± 0.0034 |
| TGCATAACGT | 1.02 ± 0.024 |
| TGCATCAATA | 1.03 ± 0.039 |
| TGCATCATTG | 0.988 ± 0.039 |
| TGCATGATTG | 0.967 ± 0.02 |
| TGCATGGGTG | 1.06 ± 0.039 |
| TGCATGTACA | 1.04 ± 0.037 |
| TGCATTAGGA | 1.02 ± 0.024 |
| TGCATTCGTT | 1.008 ± 0.009 |
| TGCATTGGGC | 1.03 ± 0.013 |
| TGCATTGGGG | 1 ± 0.024 |
| TGCCACGCTC | 1.06 ± 0.029 |
| TGCCACTCCT | 1.0495 ± 4.1e-05 |
| TGCCATAGG | 1.008 ± 0.0032 |
| TGCCATCCGA | 1.09 ± 0.054 |
| TGCCATGACG | 0.936 ± 0.046 |
| TGCCATTGGG | 1.08 ± 0.12 |
| TGCCCATAGT | 1.009 ± 0.003 |

| Sequence | switch fluorescence ratio |
| --- | --- |
| TGCCCCACGT | 1.17 ± 0.16 |
| TGCCGCAGAG | 1.6 ± 0.16 |
| TGCCGGGAGT | 1.41 ± 0.61 |
| TGCCGTAGGG | 1.04 ± 0.041 |
| TGCCGTAGTC | 0.9685 ± 0.0092 |
| TGCCGTTCTT | 1 ± 0.021 |
| TGCCGTTTGG | 1 ± 0.03 |
| TGCCTATGGA | 1 ± 0.014 |
| TGCCTCTAGA | 1.1 ± 0.044 |
| TGCGAAAGAT | 1.05 ± 0.086 |
| TGCGAACCTT | 1.71 ± 0.12 |
| TGCGAAGGGT | 0.9856 ± 0.0046 |
| TGCGAAGGTT | 1.04 ± 0.069 |
| TGCGACGAGG | 1.04 ± 0.0011 |
| TGCGATGCGG | 0.979 ± 0.037 |
| TGCGCCCGTT | 1 ± 0.033 |
| TGCGCCGTTT | 1.01 ± 0.017 |
| TGCGCCTGGG | 1.03 ± 0.013 |
| TGCGCGAAAG | 0.98 ± 0.042 |
| TGCGCTTTTT | 1.03 ± 0.061 |
| TGCGGCTG | 1.05 ± 0.039 |
| TGCGGGAGGG | 1.26 ± 0.35 |
| TGCGGGGGGG | 1.03 ± 0.038 |
| TGCGGTAGGT | 0.991 ± 0.018 |
| TGCGGTGACC | 1 ± 0.014 |

| Sequence | switch fluorescence ratio |
| --- | --- |
| TGCGGTGTCG | 1.06 ± 0.083 |
| TGCGGTTATG | 1.07 ± 0.051 |
| TGCGGTTTTT | 0.998 ± 0.02 |
| TGCGTACTAT | 1.06 ± 0.1 |
| TGCGTAGGAA | 1.061 ± 0.0049 |
| TGCGTATTTT | 1.025 ± 0.0031 |
| TGCGTCAGGC | 1.09 ± 0.045 |
| TGCGTTAAAA | 0.994 ± 0.042 |
| TGCGTTCAAG | 0.9721 ± 0.0056 |
| TGCGTTCGGC | 0.963 ± 0.041 |
| TGCGTTGCTA | 0.996 ± 0.038 |
| TGCTAACAGG | 1.022 ± 0.0078 |
| TGCTAGAACT | 0.972 ± 0.019 |
| TGCTAGGGTC | 0.994 ± 0.025 |
| TGCTAGGTCA | 0.969 ± 0.0059 |
| TGCTATGGGG | 1 ± 0.016 |
| TGCTATGGGT | 0.975 ± 0.023 |
| TGCTCCGTCG | 1.2 ± 0.039 |
| TGCTCCTTCT | 1.09 ± 0.011 |
| TGCTCTGGGG | 0.996 ± 0.015 |
| TGCTCTTTGG | 1 ± 0.025 |
| TGCTCTTTTT | 1 ± 0.019 |
| TGCTGGCGGC | 0.982 ± 0.03 |
| TGCTGGGATT | 1.02 ± 0.044 |
| TGCTGGGCTG | 1.01 ± 0.025 |
